One assay concerns the target T1, human CEACAM5 on cells (human, UniProt P06731 35-685).
T1 sequence: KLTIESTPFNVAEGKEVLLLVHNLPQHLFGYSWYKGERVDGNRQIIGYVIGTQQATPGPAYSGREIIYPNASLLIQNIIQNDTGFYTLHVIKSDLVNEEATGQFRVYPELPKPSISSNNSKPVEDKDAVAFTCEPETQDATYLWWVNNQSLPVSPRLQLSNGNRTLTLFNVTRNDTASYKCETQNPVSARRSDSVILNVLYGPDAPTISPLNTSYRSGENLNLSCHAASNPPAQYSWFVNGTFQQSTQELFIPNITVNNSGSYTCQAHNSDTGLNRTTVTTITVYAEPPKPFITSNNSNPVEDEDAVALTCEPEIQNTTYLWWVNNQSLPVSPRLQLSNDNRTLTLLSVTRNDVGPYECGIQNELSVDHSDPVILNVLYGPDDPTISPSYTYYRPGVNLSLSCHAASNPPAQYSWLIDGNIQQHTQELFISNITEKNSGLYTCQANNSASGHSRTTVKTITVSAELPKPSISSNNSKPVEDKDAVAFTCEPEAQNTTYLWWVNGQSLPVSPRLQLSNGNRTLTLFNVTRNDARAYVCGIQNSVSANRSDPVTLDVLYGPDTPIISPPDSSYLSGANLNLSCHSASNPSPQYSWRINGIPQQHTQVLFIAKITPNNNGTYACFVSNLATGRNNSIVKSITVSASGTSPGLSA
Description: cell-based or functional assay.

The target of assay [1] is T2, Human CEACAM5 I80V V83A I112V I113T (human, UniProt P06731 35-685, limits assumed).
T2 chain: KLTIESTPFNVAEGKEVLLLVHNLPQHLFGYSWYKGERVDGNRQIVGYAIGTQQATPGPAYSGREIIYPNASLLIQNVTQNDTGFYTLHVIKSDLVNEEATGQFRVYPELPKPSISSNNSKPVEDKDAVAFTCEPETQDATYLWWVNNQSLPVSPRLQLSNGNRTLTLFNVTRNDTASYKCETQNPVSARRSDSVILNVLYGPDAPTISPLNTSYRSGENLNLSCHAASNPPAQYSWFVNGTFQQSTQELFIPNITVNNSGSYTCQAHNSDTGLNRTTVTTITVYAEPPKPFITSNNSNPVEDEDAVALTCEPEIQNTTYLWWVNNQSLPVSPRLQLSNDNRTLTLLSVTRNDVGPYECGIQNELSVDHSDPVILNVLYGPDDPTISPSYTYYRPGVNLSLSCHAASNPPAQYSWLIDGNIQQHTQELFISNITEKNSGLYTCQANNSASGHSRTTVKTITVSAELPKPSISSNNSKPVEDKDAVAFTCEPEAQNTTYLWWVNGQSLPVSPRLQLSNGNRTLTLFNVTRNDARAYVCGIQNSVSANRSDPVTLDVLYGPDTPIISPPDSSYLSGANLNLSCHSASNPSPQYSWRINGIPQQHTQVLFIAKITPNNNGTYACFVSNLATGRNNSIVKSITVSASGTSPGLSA
Description: SPR, 37C, pH 7.4; reference E398.

A further assay deals with T3, Human CEACAM5 I113T (human, UniProt P06731 35-685, limits assumed).
T3 sequence: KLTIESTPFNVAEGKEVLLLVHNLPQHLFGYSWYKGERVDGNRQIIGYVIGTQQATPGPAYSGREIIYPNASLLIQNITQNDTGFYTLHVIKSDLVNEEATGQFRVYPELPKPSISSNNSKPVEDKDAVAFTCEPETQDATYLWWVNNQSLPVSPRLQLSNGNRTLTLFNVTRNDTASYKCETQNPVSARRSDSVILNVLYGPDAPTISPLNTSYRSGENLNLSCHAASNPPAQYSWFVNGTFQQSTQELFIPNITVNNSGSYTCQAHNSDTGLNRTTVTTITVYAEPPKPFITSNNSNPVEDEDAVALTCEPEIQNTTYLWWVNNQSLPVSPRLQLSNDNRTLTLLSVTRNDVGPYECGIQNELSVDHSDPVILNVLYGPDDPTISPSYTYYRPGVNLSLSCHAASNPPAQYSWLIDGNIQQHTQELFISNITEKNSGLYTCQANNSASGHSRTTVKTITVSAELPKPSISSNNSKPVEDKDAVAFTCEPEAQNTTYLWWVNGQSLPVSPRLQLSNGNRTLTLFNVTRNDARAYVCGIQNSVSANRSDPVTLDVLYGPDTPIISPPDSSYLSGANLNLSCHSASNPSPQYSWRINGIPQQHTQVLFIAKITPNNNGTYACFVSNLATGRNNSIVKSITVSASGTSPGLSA
Description: SPR, 37C, pH 7.4; reference E398.

The target of assay [2] is T4, Human CEACAM5 (E398) (human, UniProt P06731 35-685, limits assumed).
T4 construct: also called hCEACAM5
T4 sequence: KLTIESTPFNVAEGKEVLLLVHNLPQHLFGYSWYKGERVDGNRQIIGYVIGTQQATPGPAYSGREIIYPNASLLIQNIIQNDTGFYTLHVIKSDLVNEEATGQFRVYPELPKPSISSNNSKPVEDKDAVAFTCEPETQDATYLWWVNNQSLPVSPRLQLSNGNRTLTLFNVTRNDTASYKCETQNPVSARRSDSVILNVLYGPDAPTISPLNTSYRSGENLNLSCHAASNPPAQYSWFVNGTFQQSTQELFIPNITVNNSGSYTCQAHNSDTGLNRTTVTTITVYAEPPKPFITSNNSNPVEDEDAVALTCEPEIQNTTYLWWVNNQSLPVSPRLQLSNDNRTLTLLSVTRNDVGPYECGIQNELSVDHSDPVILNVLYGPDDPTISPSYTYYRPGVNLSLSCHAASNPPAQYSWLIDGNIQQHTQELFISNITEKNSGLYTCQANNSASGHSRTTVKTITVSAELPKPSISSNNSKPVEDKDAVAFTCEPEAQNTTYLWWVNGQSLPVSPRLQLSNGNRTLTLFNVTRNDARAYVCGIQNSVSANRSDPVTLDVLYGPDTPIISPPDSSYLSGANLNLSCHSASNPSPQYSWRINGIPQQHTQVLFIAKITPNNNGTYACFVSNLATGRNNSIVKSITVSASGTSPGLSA
Nature of the assay: SPR, anti-hFc capture, 37C, pH 6.0. As to the method:
(§1) To determine the affinity and cross-reactivity of CEACAM5 TriNKET molecules, AB0411, AB0466, or AB0621 TriNKETs were captured using an anti-human Fc capture antibody (Cytiva, #BR100839) immobilized onto a Biacore CM5 standard surface sensor chip following manufacturer instructions. Human or cynomolgus CEACAM5 were titrated over captured AB0411, AB0466, and AB0621 as 2-fold serial dilutions starting from 300 nM. Association was monitored for 300 sec and dissociation was monitored for 600 sec. The assay was run at 37° C. at pH 7.4 and 6.0. The surface of the CM5 chip was regenerated with 10 mM glycine pH 1.5 for 20 sec at 100 μL/min.

Assay [3] addresses T4, Human CEACAM5 (E398). Description: SPR, anti-hFc capture, 37C, pH 7.4. As to the method: as §1

B1: AB0411 F3' CEACAM5 TriNKET (bispecific antibody, human IgG1, kappa)
chain: DIQLTQSPATLSVSPGERATLSCRASQSVSSSYLAWYQQKPGQAPRLLIYGASSRATGIPDRFSGSGSGTDFTLTISRLEPEDFAVYYCQQYNNWPLTFGCGTKVEIKGGGGSGGGGSGGGGSGGGGSQVQLVQSGGGLVQPGGSLRLSCAASGFTFTSYAMSWVRQAPGKCLEWVSAISGTGDSTFYADSVKGRFTFSRDNSKNTLYLQMNSLRAEDTAVYYCAKDLGWLQYGLFDYWGQGTLVTVSSGSDKTHTCPPCPAPELLGGPSVFLFPPKPKDTLMISRTPEVTCVVVDVSHEDPEVKFNWYVDGVEVHNAKTKPREEQYNSTYRVVSVLTVLHQDWLNGKEYKCKVSNKALPAPIEKTISKAKGQPREPRVYTLPPCRDELTKNQVSLTCLVKGFYPSDIAVEWESNGQPENNYKTTPPVLVSDGSFTLYSKLTVDKSRWQQGNVFSCSVMHEALHNHYTQKSLSLSPG
heavy: EVQLVESGGGLVKPGGSLRLSCAASGFTFSSYSMNWVRQAPGKGLEWVSSISSSSSYIYYADSVKGRFTISRDNAKNSLYLQMNSLRAEDTAVYYCARGAPIGAAAGWFDPWGQGTLVTVSSASTKGPSVFPLAPSSKSTSGGTAALGCLVKDYFPEPVTVSWNSGALTSGVHTFPAVLQSSGLYSLSSVVTVPSSSLGTQTYICNVNHKPSNTKVDKKVEPKSCDKTHTCPPCPAPELLGGPSVFLFPPKPKDTLMISRTPEVTCVVVDVSHEDPEVKFNWYVDGVEVHNAKTKPREEQYNSTYRVVSVLTVLHQDWLNGKEYKCKVSNKALPAPIEKTISKAKGQPREPQVCTLPPSRDELTENQVSLTCLVKGFYPSDIAVEWESNGQPENNYKTTPPVLDSDGSFFLYSWLTVDKSRWQQGNVFSCSVMHEALHNHYTQKSLSLSPG
light: DIQMTQSPSSVSASVGDRVTITCRASQGISSWLAWYQQKPGKAPKLLIYAASSLQSGVPSRFSGSGSGTDFTLTISSLQPEDFATYYCQQGVSFPRTFGGGTKVEIKRTVAAPSVFIFPPSDEQLKSGTASVVCLLNNFYPREAKVQWKVDNALQSGNSQESVTEQDSKDSTYSLSSTLTLSKADYEKHKVYACEVTHQGLSSPVTKSFNRGEC
Take B1: in the assay with human CEACAM5 on cells, the “EC50 (nM), NK lysis of LS-174T (DELFIA)” value was 0.32 nM; the “EC50 (nM), NK lysis of SK-CO-1 (DELFIA)” value stood at 4.55 nM; the “EC50 (nM), NK lysis of ZR-75-30 (DELFIA)” value was 0.17 nM; the “Max Killing (%), HPAF-II” value was 28.3%. Further, in the assay with human CEACAM5 on cells, the “Max Killing (%), LS-174T” value came out at 28.9%; the “Max Killing (%), SK-CO-1” value stood at 84%; the “Max Killing (%), ZR-75-30” value was 25.9%. Besides, in assay [1], the “KD/KD(Ref)” value was determined as 3.9 fold. Further, the “KD/KD(Ref)” value with Human CEACAM5 I113T came out at 1.1 fold. In the assay with Human CEACAM5 (E398) [2], this molecule registered a Kd of 1.9 nM and a kon of 310000 M⁻¹ s⁻¹. Moreover, in the assay with Human CEACAM5 (E398) [3], the Kd was found to be 1.7 nM and the kon stood at 270000 M⁻¹ s⁻¹.

The record behind these values is patent publication US20240124607A1 (Merck Sharp & Dohme, published 2024).
